The record followed here is US20230340147A1 (published 2023).

Test [1] deals with PSA in formalin-fixed, paraffin-embedded (FFPE) prostate tissue (human) (UniProt P07288). The test is described as follows: IHC on FFPE tumor tissue array (Tour of Tumor), prostate core.
Test [2] addresses T1, Fucosylated PSA disaccharide glycopeptide (DP) (human, not fully specified (residue 3, C-terminus)).
T1 construct: also called glycopeptide of Formula IV
T1 peptide: IRNKSVILLGRHS
The test is described as follows: IHC peptide inhibition, antibody pre-incubated with peptide. As to the method: FIG. 8. Inhibition of anti-1,6fucPSA antibody binding by fucosylated PSA disaccharide glycopeptide (DP) in IHC analysis of FFPE samples of prostate adenocarcinoma samples. From top to bottom rows, exemplary anti-1,6fucPSA antibodies, FIG. 8A: 2E9, 3B10, and 3H6 at 2.5 μg/ml, 2.5 μg/ml, and 2.5 μg/ml, respectively; FIG. 8B: 13C5, 2H9, and 2C11 at 3 μg/ml, 2.5 μg/ml, and 1 μg/ml, respectively. For FIG. 8A and FIG. 8B, antibodies were pre-incubated with, from left to right columns, PBS buffer (control) or DP at 5×10⁻⁹ M, 5×10⁻⁸ M, 5×10⁻⁷ M, 5×10⁻⁶ M, or 5×10⁻⁵ M.
To verify that anti-1,6fucPSA antibodies recognize specifically and selectively the core-fucosylated PSA epitope, staining specificity was tested by peptide inhibition analysis.

The target of test [3] is T2, PSA(67-79)-G0F (human, also: Asn3 N-glycosylated with octasaccharide carrying alpha-1,6 core fucose (G0F)).
T2 construct: Synthetic glycopeptide (3.9 kDa as SPR analyte), made on Sieber Amide resin; For the ELISAs a biotinylated form was used (glutamic acid derivative with a PEG3-biotin side chain at the N-terminus); also called PSA(67-79)-GOF; glycopeptide of Formula Ib
T2 peptide: IRN(G0F)KSVILLGRHS-NH2
The test is described as follows: Hit-ELISA, biotinylated peptide on streptavidin plate, supernatant of recombinant expression. As for the experimental part: Subsequently Hit-ELISA (i.e. ELISAs testing the binding to the screening agents) was used to identify B-cells expressing antibodies having desired binding characteristics, i.e. binding the PSA(67-79)-GOF peptide and capable of discriminating from PSA(67-79)-G2 and Asn-GOF. Biotinylated screening agents PSA(67-79)-GOF, PSA(67-79)-G2 and Asn-GOF were immobilized on the surface of streptavidin-coated 96-well plates (Nunc) by incubation of 100 μl per well of 100 ng/ml solutions for 60 min at room temperature, respectively. The plates were washed and 30 μl of rabbit B-cell culture supernatant was transferred to each well and incubated for 1 h at room temperature. For the detection of antibodies bound to the screening agents, HRP-labeled F(ab′)₂ goat anti-rabbit Fcγ (Dianova) and ABTS substrate solution (Roche) were used according to manufacturer's instructions. 16 clones were identified that bound to PSA(67-79)-GOF and discriminated from the negative screening agents according to the selected cut-offs (OD>0.6 in positive screening and <0.6 in negative screening). The 16 clones were selected for subsequent molecular cloning and recombinant expression as also described in Seeber et al., PLoS One 9(2014), issue 2, e86184. For 15 out of the 16 clones the sequences could be successfully cloned and the sequences encoding VH and VL could be unambiguously determined. The Hit-ELISA using the screening agents was then repeated with the supernatant of the recombinant expression and the more stringent cut-off criteria (OD>1 for positive screening agent and OD at/below average background signal for negative screening agents) were fulfilled for all 15 previously selected clones for which unambiguous VH and VL sequences were retrieved.
Background: An ELISA detects its analyte on a solid surface through an enzyme-linked reagent.

The target of test [4] is T2, PSA(67-79)-G0F. Description: SPR, Biacore 8k, 37 C, antibody captured by anti-rabbit Fc, peptide as analyte. As to the method:
(§1) 30 μg/ml of a Fcγ-fragment binding, polyclonal goat anti-Rabbit IgG (GARb-Fcγ, Jackson Laboratories) in 10 mM sodium acetate buffer (pH 4.5) was pre-concentrated in all 16 flow cells, and up to 10000 RU GARb-Fcγ were immobilized according to the manufacturer's instructions using EDC/NHS chemistry. Rabbit IgG antibody (150 kDa) containing rabbit B-cell primary cell culture supernatants were diluted three-fold with sample buffer and were captured for 2 min under a flow rate of 5 μl/min on 8 sample flow cells. The antibody Capture Level (CL) was quantified in response units (RU) for each antibody.
(§2) The non fucosylated peptide analyte PSA(67-79)-G2 (3.7 kDa) and the fucosylated peptide analyte PSA(67-79)-GOF (3.9 kDa) were diluted in sample buffer in concentration series of 0 nM (buffer), 11 nM, 33 nM, 100 nM, 300 nM, and 900 nM. The 100 nM analyte samples were injected twice as control. The analytes were injected at 30 μl/min for 3 min association time. After the association phase of the 900 nM analyte injection a report point (Binding Late) was set to quantify the signal response at antibody ligand saturation. The antibody antigen dissociation was monitored for 5 min. The GARb-Fcγ antibody capture system was regenerated by injection of 10 mM glycine pH 2 at 30 μl/min for 1 min, followed by two consecutive 1 min injections of 10 mM glycine pH 2.25 at 30 μl/min. Overlay plots of concentration dependent antigen binding were generated and kinetic rates were determined with the Biacore 8k evaluation software using a Langmuir fitting model with RMAX local. The antibody/antigen complex half-life was calculated in minutes according to the formula t_{1/2 diss}=ln(2)/60*kd.
Molar Ratio (MR) indicating antibody-antigen binding stoichiometry was also determined and calculated as MR=(analyte Binding Late (RU)/antibody Capture Level (RU)) x (MW(antibody)/MW (analyte)).

Test [5] has as its target T2, PSA(67-79)-G0F. The test is described as follows: SPR, Biacore 8k, 37 C, antibody captured by anti-rabbit Fc, peptide as analyte, Langmuir fit. As for the experimental part:
as §1, §2

Test [6] deals with T2, PSA(67-79)-G0F. Description: SPR, Biacore 8k, 37 C, antibody captured by anti-rabbit Fc, 900 nM peptide injection. As for the experimental part:
as §1, §2
(Surface plasmon resonance follows binding to a sensor surface in real time, without labels.)

Values joined by “and” are separate entries in the source; they are usually repeats but may differ in a detail not shown here. Equal values may be shown once. Ends that are not written are not given here. * marks the point of attachment. G0F = octasaccharide N-glycan with alpha-1,6 core fucose (Formula Ib, linkages Formula Ic), CC(=O)N[C@@H]1[C@@H](O)[C@H](O[C@@H]2O[C@H](CO)[C@@H](O[C@@H]3O[C@H](CO[C@H]4O[C@H](CO)[C@@H](O)[C@H](O)[C@@H]4O[C@@H]4O[C@H](CO)[C@@H](O)[C@H](O)[C@H]4NC(C)=O)[C@@H](O)[C@H](O[C@H]4O[C@H](CO)[C@@H](O)[C@H](O)[C@@H]4O[C@@H]4O[C@H](CO)[C@@H](O)[C@H](O)[C@H]4NC(C)=O)[C@@H]3O)[C@H](O)[C@H]2NC(C)=O)[C@@H](CO[C@@H]2O[C@@H](C)[C@@H](O)[C@@H](O)[C@@H]2O)O[C@H]1*

Sequence of PSA in formalin-fixed, paraffin-embedded (FFPE) prostate tissue (human) (P07288 25-261 limits assumed): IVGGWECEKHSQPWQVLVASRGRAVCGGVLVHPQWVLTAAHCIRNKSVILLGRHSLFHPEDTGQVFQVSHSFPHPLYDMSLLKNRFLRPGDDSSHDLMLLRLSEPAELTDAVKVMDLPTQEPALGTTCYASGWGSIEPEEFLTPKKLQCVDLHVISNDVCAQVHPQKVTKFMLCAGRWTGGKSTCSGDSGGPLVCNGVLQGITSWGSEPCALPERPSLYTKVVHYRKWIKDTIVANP

Consider “anti-PSA mouse monoclonal antibody ER-PR8”, for which, in test [1], the IHC staining intensity was 3 + and 3.5 +.

B1: 2E9 (antibody, V domains shown)
VH: QSLEESGGDLVKPGASLTLTCTASGFSFSAGYDMCWVRQAPGKGLEWIACIYADGSGSTYYANWAKGRFTISLASSTTVTLQMTGLTAADTATYFCAREGADGPDYGYAAFSLWGPGTLVTVSS
VL: DVVMTQTPASVEAAVGGTVTIKCQASQSISNYFSWYQQKPGQPPKLLIYKASTLASGVPSRFKGSGSGTEFTLTISDLECADAATYYCQSFYGSVTSDYGGFAFGGGTEVVVK
notes: Rabbit monoclonal IgG (150 kDa); also called anti-1,6fucPSA antibody 2E9
By Kd is commonly meant the constant that tells how readily two partners part at equilibrium. The koff is the rate constant with which the complex falls apart. As usually defined, the kon is the rate constant with which the complex forms. As to B1, in test [2], the “peptide concentration giving complete inhibition” value stood at 5 µM. Moreover, the OD in the test with PSA(67-79)-G0F [3] was more than 1 OD. Besides, the IHC staining intensity in test [1] is 3.5 + and 3.25 +. Besides, the “MR (Molar Ratio)” value in the test with PSA(67-79)-G0F [4] worked out at 2. In the test with PSA(67-79)-G0F [5], the Kd was determined as 0.6 nM, the koff was 0.00112 s⁻¹, the kon turned out to be 1.75e+06 M⁻¹ s⁻¹ and the t/2diss is 10 min. Besides, the “BL (Binding Late)” value in the test with PSA(67-79)-G0F [6] is 27 RU.

B2: 2C11 (antibody, V domains shown)
VH: QSLEESGGGLVKPGGTLTLTCKASGFSFGPGYDMCWVRQAPGKGLEWIACIYADGSDNTYYASWARGRFTISKTSSTTVTLQMTRLTAADTATYFCAREGADNPNYGYAALRLWGPGTLVTVSS
VL: DIVMTQTPASVEAPVGGTVTIKCQASESISSYLAWYQQKPGQPPKLLIYKTSTLASGVPSRFKGSGSGTEFTLTISDLECANAATYYCQSFYGSVSSDYGGFAFGGGTEVVVK
notes: Rabbit monoclonal IgG (150 kDa); also called anti-1,6fucPSA antibody 2C11
Regarding B2, the “peptide concentration giving complete inhibition” value in test [2] is 5 µM. Besides, the OD in the test with PSA(67-79)-G0F [3] was more than 1 OD. Also, the IHC staining intensity in test [1] was 3 + and 2.5 +. The “MR (Molar Ratio)” value with PSA(67-79)-G0F [4] turned out to be 1. In the test with PSA(67-79)-G0F [5], this molecule had a Kd of 1 nM, a koff of 0.00078 s⁻¹, an on-rate constant (kon) of 779000 M⁻¹ s⁻¹ and a t/2diss of 15 min. In addition, the “BL (Binding Late)” value with PSA(67-79)-G0F [6] is 53 RU.

B3: 13C5 (antibody, V domains shown)
VH: QSLEESGGDLVKPGASLTLTCTASGFSFSSGYDMCWVRQAPGKGLEWIGCIYADGSGTTYYATWAKGRFTISNPSATTVTLQMTRLTAADTATYFCAREGADNPNYGYAALRLWGPGTLVTVSS
VL: DIVMTQTPASVSGAVGGTITIKCQASQSISNYFSWYQQKPGQPPKLLIYKTSTLASGVPSRFKGSGSGTEFTLTISDLECADAATYYCQSFWGSGSSDYGGFAFGGGTEVVVK
notes: Rabbit monoclonal IgG (150 kDa); also called anti-1,6fucPSA antibody 13C5
Regarding B3, the “peptide concentration giving complete inhibition” value in test [2] was determined as 5 µM. The OD with PSA(67-79)-G0F [3] was more than 1 OD. The IHC staining intensity in test [1] is 3.5 + and 3 +. Besides, in the test with PSA(67-79)-G0F [4], the “MR (Molar Ratio)” value stood at 2. In the test with PSA(67-79)-G0F [5], this molecule had a Kd of 0.4 nM, a koff of 0.00038 s⁻¹, a kon of 981000 M⁻¹ s⁻¹ and a t/2diss of 31 min. The “BL (Binding Late)” value with PSA(67-79)-G0F [6] amounted to 29 RU.

B4: 2H9 (antibody, V domains shown)
VH: QSLEESGGDLVKPGASLTLTCTASGFSFSSGYDMCWVRQAPGKGPEWIACIYADGSGSTYYASWAKGRFTISMTSSTTVTLQMTRLTAADTATYFCAREGADDPNYGYAALRLWGPGTLVTVSS
VL: DIVMTQTPASVEAAVGGTVTIKCQASQSISNYLAWYQQKPGQPPKLLIYKTSTLASGVPSRFKGSGSGTEFTLTISDLECADAATYYCQSFYGSVSSDYGGFAFGGGTEVVVK
notes: Rabbit monoclonal IgG (150 kDa); also called anti-1,6fucPSA antibody 2H9
In the case of B4, in test [2], the “peptide concentration giving complete inhibition” value worked out at 5 µM. Moreover, in the test with PSA(67-79)-G0F [3], the OD was more than 1 OD. Also, the IHC staining intensity in test [1] is 3 + and 2.75 +. For the same molecule, in the test with PSA(67-79)-G0F [4], the “MR (Molar Ratio)” value was 2. In the test with PSA(67-79)-G0F [5], this molecule showed a Kd of 2 nM, a koff of 0.00105 s⁻¹, an on-rate constant (kon) of 578000 M⁻¹ s⁻¹ and a t/2diss of 11 min. Moreover, in the test with PSA(67-79)-G0F [6], the “BL (Binding Late)” value stood at 54 RU.

B5: 3B10 (antibody, V domains shown)
VH: QSLEESGGGLVKPGGTLTLTCKASGFSFSSGYDMCWVRQAPGKGLEWIACIYADGSDNTYYASWAKGRFTISKTSSTTVTLQMTRLTAADTATYFCAREGADNPNYGYAALRLWGPGTLVTVSS
VL: DIVMTQTPASVEAPVGGTVTIKCQATQSISSYLSWYQQKPGQPPKLLIYKTSTLASGVPSRFKGSGSGTEFTLTISDLECANAATYYCQSYYGSISSDYGGFAFGGGTEVVVK
notes: Rabbit monoclonal IgG (150 kDa); also called anti-1,6fucPSA antibody 3B10
With B5, in test [2], the “peptide concentration giving complete inhibition” value amounted to 5 µM. For the same molecule, in the test with PSA(67-79)-G0F [3], the OD is more than 1 OD. Besides, the IHC staining intensity in test [1] was 3 + and 2.5 +. For the same molecule, the “MR (Molar Ratio)” value with PSA(67-79)-G0F [4] turned out to be 1. Also, in the test with PSA(67-79)-G0F [5], the affinity, expressed as Kd, was 11 nM; the off-rate constant (koff) was 0.0121 s⁻¹; the kon was determined as 1.14e+06 M⁻¹ s⁻¹; the t/2diss turned out to be 1 min. In the test with PSA(67-79)-G0F [6], the “BL (Binding Late)” value turned out to be 31 RU.

B6: 3H6 (antibody, V domains shown)
VH: QSLEESGGDLVKPGASLTLTCTASGFSFSSGYDMCWVRQAPGKGLEWIACIYADGSGSTYYASWAKGRFTISKPSSTTVTLQMTRLTAADTATYFCAREGADGPDYGYAAFSLWGPGTLVTVSS
VL: DIVMTQTPASVEAAVGGTVTIKCQASQTISSYFSWYQQKPGQPPKLLIYKASSLASGVPSRFKGSGSGTQFTLTISDLECADAATYYCQSFYGSVSSDVGGFAFGGGTEVVVK
notes: Rabbit monoclonal IgG (150 kDa); also called anti-1,6fucPSA antibody 3H6
B6: the “peptide concentration giving complete inhibition” value in test [2] came out at 5 µM. Further, the OD in the test with PSA(67-79)-G0F [3] is more than 1 OD. In addition, the IHC staining intensity in test [1] was 3.25 + and 3 +. In addition, the “MR (Molar Ratio)” value with PSA(67-79)-G0F [4] came to 1. In the test with PSA(67-79)-G0F [5], this molecule registered a Kd of 4 nM, an off-rate constant (koff) of 0.00536 s⁻¹, a kon of 1.52e+06 M⁻¹ s⁻¹ and a t/2diss of 2 min. For the same molecule, the “BL (Binding Late)” value with PSA(67-79)-G0F [6] came to 25 RU.
